Biological target: Nogo receptor (NgR)
Assay: cell-based or functional assay

Row | neurite outgrowth of cerebellar neurons on MAG-expressing CHO cells, peptide at 15 uM (FIG. 4) | Binder
1 | 2 fold | VAFELPSRNVTVNETEREFVYSERSGLLLT [MAG peptide MAG(442-471)]
2 | 2 fold | AAARDTVQCLCVVKSNPEPSVAFELPSRNV [MAG peptide MAG(422-451)]

Source: US20040121341A1 (RESEARCH FOUNDATION OF CITY UNIVERSITY OF NEW YORK, published 2004)
